Laboratory results as given in IntAct's records for PubMed 19229295.

B1: Growth/differentiation factor 5 (Homo sapiens), P43026 (parent)
chain: MRLPKLLTFLLWYLAWLDLEFICTVLGAPDLGQRPQGTRPGLAKAEAKERPPLARNVFRPGGHSYGGGATNANARAKGGTGQTGGLTQPKKDEPKKLPPRPGGPEPKPGHPPQTRQATARTVTPKGQLPGGKAPPKAGSVPSSFLLKKAREPGPPREPKEPFRPPPITPHEYMLSLYRTLSDADRKGGNSSVKLEAGLANTITSFIDKGQDDRGPVVRKQRYVFDISALEKDGLLGAELRILRKKPSDTAKPAAPGGGRAAQLKLSSCPSGRQPAALLDVRSVPGLDGSGWEVFDIWKLFRNFKNSAQLCLELEAWERGRAVDLRGLGFDRAARQVHEKALFLVFGRTKKRDLFFNEIKARSGQDDKTVYEYLFSQRRKRRAPLATRQGKRPSKNLKARCSRKALHVNFKDMGWDDWIIAPLEYEAFHCEGLCEFPLRSHLEPTNHAVIQTLMNSMDPESTPPTCCVPTRLSPISILFIDSANNVVYKQYEDMVVESCGCR
B2: Bone morphogenetic protein receptor type-1B (Homo sapiens), O00238 (parent)
chain: MLLRSAGKLNVGTKKEDGESTAPTPRPKVLRCKCHHHCPEDSVNNICSTDGYCFTMIEEDDSGLPVVTSGCLGLEGSDFQCRDTPIPHQRRSIECCTERNECNKDLHPTLPPLKNRDFVDGPIHHRALLISVTVCSLLLVLIILFCYFRYKRQETRPRYSIGLEQDETYIPPGESLRDLIEQSQSSGSGSGLPLLVQRTIAKQIQMVKQIGKGRYGEVWMGKWRGEKVAVKVFFTTEEASWFRETEIYQTVLMRHENILGFIAADIKGTGSWTQLYLITDYHENGSLYDYLKSTTLDAKSMLKLAYSSVSGLCHLHTEIFSTQGKPAIAHRDLKSKNILVKKNGTCCIADLGLAVKFISDTNEVDIPPNTRVGTKRYMPPEVLDESLNRNHFQSYIMADMYSFGLILWEVARRCVSGGIVEEYQLPYHDLVPSDPSYEDMREIVCIKKLRPSFPNRWSSDECLRQMGKLMTECWAHNPASRLTALRVKKTLAKMSESQDIKL
partner: B1 chain

Variants of: B1
Settings: with bmr1b_human BMPR1B

| effect of a mutation on the interaction | Variant |
| --- | --- |
| decreasing interaction | MRLPKLLTFLLWYLAWLDLEFICTVLGAPDLGQRPQGTRPGLAKAEAKERPPLARNVFRPGGHSYGGGATNANARAKGGTGQTGGLTQPKKDEPKKLPPRPGGPEPKPGHPPQTRQATARTVTPKGQLPGGKAPPKAGSVPSSFLLKKAREPGPPREPKEPFRPPPITPHEYMLSLYRTLSDADRKGGNSSVKLEAGLANTITSFIDKGQDDRGPVVRKQRYVFDISALEKDGLLGAELRILRKKPSDTAKPAAPGGGRAAQLKLSSCPSGRQPAALLDVRSVPGLDGSGWEVFDIWKLFRNFKNSAQLCLELEAWERGRAVDLRGLGFDRAARQVHEKALFLVFGRTKKRDLFFNEIKARSGQDDKTVYEYLFSQRRKRRAPLATRQGKRPSKNLKARCSRKALHVNFKDMGWDDWIIAPLEYEAFHCEGLCEFPLRSHPEPTNHAVIQTLMNSMDPESTPPTCCVPTRLSPISILFIDSANNVVYKQYEDMVVESCGCR [L441P] |

Variants of: B1
Settings: with bmpr2_human BMPR2, Q13873
Chain of bmpr2_human BMPR2, Q13873 (Q13873 whole entry): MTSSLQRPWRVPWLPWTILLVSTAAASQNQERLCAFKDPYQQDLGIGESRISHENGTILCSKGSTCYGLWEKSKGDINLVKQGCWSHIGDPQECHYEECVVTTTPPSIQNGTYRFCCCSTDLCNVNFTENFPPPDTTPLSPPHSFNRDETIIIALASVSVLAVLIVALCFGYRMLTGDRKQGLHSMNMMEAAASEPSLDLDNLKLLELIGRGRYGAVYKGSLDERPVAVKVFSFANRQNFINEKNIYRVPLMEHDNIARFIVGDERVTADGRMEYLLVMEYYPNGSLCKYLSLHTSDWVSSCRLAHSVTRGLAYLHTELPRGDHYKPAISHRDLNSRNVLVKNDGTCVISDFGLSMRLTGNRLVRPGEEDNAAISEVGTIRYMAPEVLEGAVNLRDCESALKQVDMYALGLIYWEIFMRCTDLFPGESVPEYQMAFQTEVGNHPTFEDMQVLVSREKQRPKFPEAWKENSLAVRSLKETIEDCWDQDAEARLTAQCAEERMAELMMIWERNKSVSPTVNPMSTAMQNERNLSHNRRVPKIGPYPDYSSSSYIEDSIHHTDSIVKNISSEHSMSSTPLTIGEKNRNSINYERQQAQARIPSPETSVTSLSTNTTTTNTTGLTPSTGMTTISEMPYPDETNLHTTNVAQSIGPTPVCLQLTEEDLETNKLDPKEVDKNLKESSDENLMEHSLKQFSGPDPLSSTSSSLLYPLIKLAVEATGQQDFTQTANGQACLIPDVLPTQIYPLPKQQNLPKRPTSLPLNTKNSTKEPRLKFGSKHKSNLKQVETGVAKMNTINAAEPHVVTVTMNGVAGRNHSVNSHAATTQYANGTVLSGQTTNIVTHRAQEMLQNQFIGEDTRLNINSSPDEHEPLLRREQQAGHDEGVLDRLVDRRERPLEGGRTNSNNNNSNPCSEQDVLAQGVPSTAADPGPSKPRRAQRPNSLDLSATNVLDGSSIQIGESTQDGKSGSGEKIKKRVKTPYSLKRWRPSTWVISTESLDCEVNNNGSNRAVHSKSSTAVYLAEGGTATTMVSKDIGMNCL

| effect of a mutation on the interaction | Variant |
| --- | --- |
| increasing interaction | MRLPKLLTFLLWYLAWLDLEFICTVLGAPDLGQRPQGTRPGLAKAEAKERPPLARNVFRPGGHSYGGGATNANARAKGGTGQTGGLTQPKKDEPKKLPPRPGGPEPKPGHPPQTRQATARTVTPKGQLPGGKAPPKAGSVPSSFLLKKAREPGPPREPKEPFRPPPITPHEYMLSLYRTLSDADRKGGNSSVKLEAGLANTITSFIDKGQDDRGPVVRKQRYVFDISALEKDGLLGAELRILRKKPSDTAKPAAPGGGRAAQLKLSSCPSGRQPAALLDVRSVPGLDGSGWEVFDIWKLFRNFKNSAQLCLELEAWERGRAVDLRGLGFDRAARQVHEKALFLVFGRTKKRDLFFNEIKARSGQDDKTVYEYLFSQRRKRRAPLATRQGKRPSKNLKARCSRKALHVNFKDMGWDDWIIAPLEYEAFHCEGLCEFPLRSHPEPTNHAVIQTLMNSMDPESTPPTCCVPTRLSPISILFIDSANNVVYKQYEDMVVESCGCR [L441P] |

Variants of: B1
Settings: with bmr1a_human BMPR1A

| effect of a mutation on the interaction | Variant |
| --- | --- |
| disrupting interaction | MRLPKLLTFLLWYLAWLDLEFICTVLGAPDLGQRPQGTRPGLAKAEAKERPPLARNVFRPGGHSYGGGATNANARAKGGTGQTGGLTQPKKDEPKKLPPRPGGPEPKPGHPPQTRQATARTVTPKGQLPGGKAPPKAGSVPSSFLLKKAREPGPPREPKEPFRPPPITPHEYMLSLYRTLSDADRKGGNSSVKLEAGLANTITSFIDKGQDDRGPVVRKQRYVFDISALEKDGLLGAELRILRKKPSDTAKPAAPGGGRAAQLKLSSCPSGRQPAALLDVRSVPGLDGSGWEVFDIWKLFRNFKNSAQLCLELEAWERGRAVDLRGLGFDRAARQVHEKALFLVFGRTKKRDLFFNEIKARSGQDDKTVYEYLFSQRRKRRAPLATRQGKRPSKNLKARCSRKALHVNFKDMGWDDWIIAPLEYEAFHCEGLCEFPLRSHPEPTNHAVIQTLMNSMDPESTPPTCCVPTRLSPISILFIDSANNVVYKQYEDMVVESCGCR [L441P] |

Variants of: B2
Settings: with gdf5_human GDF5, P43026

| effect of a mutation on the interaction | Variant |
| --- | --- |
| disrupting interaction | MLLRSAGKLNVGTKKEDGESTAPTPRPKVLRCKCHHHCPEDSVNNICSTDGYCFTMIEEDDSGLPVVTSGCLGLEGSDAQCRDTPIPHQRRSIECCTERNECNKDLHPTLPPLKNRDFVDGPIHHRALLISVTVCSLLLVLIILFCYFRYKRQETRPRYSIGLEQDETYIPPGESLRDLIEQSQSSGSGSGLPLLVQRTIAKQIQMVKQIGKGRYGEVWMGKWRGEKVAVKVFFTTEEASWFRETEIYQTVLMRHENILGFIAADIKGTGSWTQLYLITDYHENGSLYDYLKSTTLDAKSMLKLAYSSVSGLCHLHTEIFSTQGKPAIAHRDLKSKNILVKKNGTCCIADLGLAVKFISDTNEVDIPPNTRVGTKRYMPPEVLDESLNRNHFQSYIMADMYSFGLILWEVARRCVSGGIVEEYQLPYHDLVPSDPSYEDMREIVCIKKLRPSFPNRWSSDECLRQMGKLMTECWAHNPASRLTALRVKKTLAKMSESQDIKL [F79A] |

Variants of: B2
Settings: with gdf5_human GDF5, P43026
Remark: another data set of the same source

| effect of a mutation on the interaction | Variant |
| --- | --- |
| decreasing interaction | MLLRSAGKLNVGTKKEDGESTAPTPRPKVLRCKCHHHCPEDSVNNICSTDGYCFTMIEEDDSGLPVVTSGCLGLEGSDFACRDTPIPHQRRSIECCTERNECNKDLHPTLPPLKNRDFVDGPIHHRALLISVTVCSLLLVLIILFCYFRYKRQETRPRYSIGLEQDETYIPPGESLRDLIEQSQSSGSGSGLPLLVQRTIAKQIQMVKQIGKGRYGEVWMGKWRGEKVAVKVFFTTEEASWFRETEIYQTVLMRHENILGFIAADIKGTGSWTQLYLITDYHENGSLYDYLKSTTLDAKSMLKLAYSSVSGLCHLHTEIFSTQGKPAIAHRDLKSKNILVKKNGTCCIADLGLAVKFISDTNEVDIPPNTRVGTKRYMPPEVLDESLNRNHFQSYIMADMYSFGLILWEVARRCVSGGIVEEYQLPYHDLVPSDPSYEDMREIVCIKKLRPSFPNRWSSDECLRQMGKLMTECWAHNPASRLTALRVKKTLAKMSESQDIKL [Q80A] |

Variants of: B2
Settings: with gdf5_human GDF5, P43026
Remark: another data set of the same source

| effect of a mutation on the interaction | Variant |
| --- | --- |
| decreasing interaction | MLLRSAGKLNVGTKKEDGESTAPTPRPKVLRCKCSHHCPEDSVNNICSTDGYCFTMIEEDDSGLPVVTSGCLGLEGSDFQCRDTPIPHQRRSIECCTERNECNKDLHPTLPPLKNRDFVDGPIHHRALLISVTVCSLLLVLIILFCYFRYKRQETRPRYSIGLEQDETYIPPGESLRDLIEQSQSSGSGSGLPLLVQRTIAKQIQMVKQIGKGRYGEVWMGKWRGEKVAVKVFFTTEEASWFRETEIYQTVLMRHENILGFIAADIKGTGSWTQLYLITDYHENGSLYDYLKSTTLDAKSMLKLAYSSVSGLCHLHTEIFSTQGKPAIAHRDLKSKNILVKKNGTCCIADLGLAVKFISDTNEVDIPPNTRVGTKRYMPPEVLDESLNRNHFQSYIMADMYSFGLILWEVARRCVSGGIVEEYQLPYHDLVPSDPSYEDMREIVCIKKLRPSFPNRWSSDECLRQMGKLMTECWAHNPASRLTALRVKKTLAKMSESQDIKL [H35S] |
| decreasing interaction | MLLRSAGKLNVGTKKEDGESTAPTPRPKVLRCKCHGHCPEDSVNNICSTDGYCFTMIEEDDSGLPVVTSGCLGLEGSDFQCRDTPIPHQRRSIECCTERNECNKDLHPTLPPLKNRDFVDGPIHHRALLISVTVCSLLLVLIILFCYFRYKRQETRPRYSIGLEQDETYIPPGESLRDLIEQSQSSGSGSGLPLLVQRTIAKQIQMVKQIGKGRYGEVWMGKWRGEKVAVKVFFTTEEASWFRETEIYQTVLMRHENILGFIAADIKGTGSWTQLYLITDYHENGSLYDYLKSTTLDAKSMLKLAYSSVSGLCHLHTEIFSTQGKPAIAHRDLKSKNILVKKNGTCCIADLGLAVKFISDTNEVDIPPNTRVGTKRYMPPEVLDESLNRNHFQSYIMADMYSFGLILWEVARRCVSGGIVEEYQLPYHDLVPSDPSYEDMREIVCIKKLRPSFPNRWSSDECLRQMGKLMTECWAHNPASRLTALRVKKTLAKMSESQDIKL [H36G] |
